Measured values from US20230203463, “RNA-GUIDED NUCLEASES AND ACTIVE FRAGMENTS AND VARIANTS THEREOF AND METHODS OF USE” (LifeEDIT Therapeutics, Inc., published 2023).
Numbering of substitutions follows the chain as printed.

Key:
APG05405 (Bacillus sp.) = tested on: T1, APG05405 (Bacillus sp.); experiment: cleavage_in_vitro; conditions: trans cleavage
T1 sequence: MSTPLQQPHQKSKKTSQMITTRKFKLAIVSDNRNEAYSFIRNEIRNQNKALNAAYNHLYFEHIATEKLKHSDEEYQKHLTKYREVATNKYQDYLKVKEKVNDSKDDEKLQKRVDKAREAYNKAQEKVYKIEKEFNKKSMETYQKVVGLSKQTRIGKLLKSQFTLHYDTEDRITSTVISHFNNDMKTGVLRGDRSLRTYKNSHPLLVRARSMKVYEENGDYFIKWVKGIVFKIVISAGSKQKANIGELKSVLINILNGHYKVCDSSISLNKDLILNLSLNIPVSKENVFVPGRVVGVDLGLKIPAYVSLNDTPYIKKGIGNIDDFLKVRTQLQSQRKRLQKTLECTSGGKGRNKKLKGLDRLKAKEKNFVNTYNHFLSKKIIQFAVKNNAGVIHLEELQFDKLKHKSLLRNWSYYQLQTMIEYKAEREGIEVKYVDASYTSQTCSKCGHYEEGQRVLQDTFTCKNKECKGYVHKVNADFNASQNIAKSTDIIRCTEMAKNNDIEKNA

APG09624 = molecular target: T2, APG09624 (Bacillus sp.); experiment: thermal shift; peaks 39 and 44 C vs 38 C without RNA; conditions: tags: C-terminal His10
T2 chain: T1 sequence with D102A, I177L, T311N, K326N, S333N, N352S
Experimental: (§1) RNA binding was confirmed by differential scanning fluorimetry (Niesen, F.H., H. Berglund, and M. Vedadi. 2007. Nat. Protoc. 2: 2212-2221). Dual RNA complexes were produced by mixing an excess of crRNA with tracrRNA in Annealing Buffer (Synthego, 60 mM KCl 6 mM HEPES pH 7). The candidate effector protein and guide RNA (either dual RNA complex or sgRNA) were incubated at final concentrations of 0.5 µM effector protein and 1 µM guide RNA in phosphate buffered saline (PBS, Thermo Fisher). These were incubated for 20 minutes at room temperature and then mixed 1:1 with Sypro Orange dye solution that had been diluted in PBS. A melt curve was obtained measuring fluorescence intensity (FI) as a function of temperature and the first derivative of the melt curve (dFI/dT) was calculated. A shift in the plot of dFI/dT as a function of temperature of the putative RNP relative to the original nuclease indicates RNA binding and was used to evaluate putative guide RNA combinations. […] Peak 1 refers to the temperature associated with the largest observed peak for the given sample. If a second peak is observed, it is indicated in the Peak 2 column. Interpretation of the data regarding the formation of a complex is indicated in the “Binding?” column Table 3. “Yes” indicates binding was observed. “N/A” indicates sufficient data was not available to determine if binding could occur.

APG05405 = molecular target: T3, APG05405 (Bacillus sp.); experiment: thermal shift; peak 43 C vs 36 C without RNA; conditions: tags: C-terminal His10
T3 chain: T1 sequence
Experimental: as §1

**Q.** How did the activity (APG05405 (Bacillus sp.); NEBuffer 2, 37 C, degenerate 8 bp 5' of target, PAM not determined) turn out when “GGGAAACAGCUAGAAUGUAACUUAAAGUAGGUCAAUGUUUAAAUUCGAUGUUGCAAUUUGUUUGGACAAGUGGAUUAAAACGUUCCUUGAAAAUCAUAUAAAGCAGCCAGUUUACGGGCUUGGGCGAAUUUGCGUCCAAAGGGUGAGGCCAGGUGUAAGUAAGAACCUACAAAAGCACUCACCAAAGGGUCAAAAAGAUCCUACAUGGAUGUGAGGAUUGAAAUACUACAACAGCCACAACG / TCGTCGGCAGCGTCAGATGTGTATAAGAGACAGAACGACGGCCAGTGAATTNNNNNNNNACTACAACAGCCACAACGTCTATATCATGGGATCCTCTAGAGTCGACCTGCTGTCTCTTATACACATCTCCGAGCCCACGAGAC / GTCTCGTGGGCTCGGAGATGTGTATAAGAGACAGCAGGTCGACTCTAGAGGATCCCATGATATAGACGTTGTGGCTGTTGTAGTNNNNNNNNAATTCACTGGCCGTCGTTCTGTCTCTTATACACATCTGACGCTGCCGACGA [sgRNA Gsg.2 ; dsPCR2]” was run?
**A.** Its activity is 768 AU/min.

**Q.** Which activity (APG05405 (Bacillus sp.); non-matching guide) does the source give for “GGGAAACAGCUAGAAUGUAACUUAAAGUAGGUCAAUGUUUAAAUUCGAUGUUGCAAUUUGUUUGGACAAGUGGAUUAAAACGUUCCUUGAAAAUCAUAUAAAGCAGCCAGUUUACGGGCUUGGGCGAAUUUGCGUCCAAAGGGUGAGGCCAGGUGUAAGUAAGAACCUACAAAAGCACUCACCAAAGGGUCAAAAAGAUCCUACAUGGAUGUGAGGAUUGAAAUACUACAACAGCCACAACG / TCGTCGGCAGCGTCAGATGTGTATAAGAGACAGAACGACGGCCAGTGAATTNNNNNTGGAATGGGAACTAAAGTAATGGCAAACGAATTCGTAGGATCCTCTAGAGTCGACCTGCTGTCTCTTATACACATCTCCGAGCCCACGAGAC / GTCTCGTGGGCTCGGAGATGTGTATAAGAGACAGCAGGTCGACTCTAGAGGATCCTACGAATTCGTTTGCCATTACTTTAGTTCCCATTCCANNNNNAATTCACTGGCCGTCGTTCTGTCTCTTATACACATCTGACGCTGCCGACGA [sgRNA Gsg.2 ; dsPCR3]” here?
**A.** Its activity is 102 AU/min.

**Q.** With “GGGAAACAGCUAGAAUGUAACUUAAAGUAGGUCAAUGUUUAAAUUCGAUGUUGCAAUUUGUUUGGACAAGUGGAUUAAAACGUUCCUUGAAAAUCAUAUAAAGCAGCCAGUUUACGGGCUUGGGCGAAUUUGCGUCCAAAGGGUGAGGCCAGGUGUAAGUAAGAACCUACAAAAGCACUCACCAAAGGGUCAAAAAGAUCCUACAUGGAUGUGAGGAUUGAAAUUGGAAUGGGAACUAAAGU / TCGTCGGCAGCGTCAGATGTGTATAAGAGACAGAACGACGGCCAGTGAATTNNNNNNNNACTACAACAGCCACAACGTCTATATCATGGGATCCTCTAGAGTCGACCTGCTGTCTCTTATACACATCTCCGAGCCCACGAGAC / GTCTCGTGGGCTCGGAGATGTGTATAAGAGACAGCAGGTCGACTCTAGAGGATCCCATGATATAGACGTTGTGGCTGTTGTAGTNNNNNNNNAATTCACTGGCCGTCGTTCTGTCTCTTATACACATCTGACGCTGCCGACGA [sgRNA Gsg.3 ; dsPCR2]” as the molecule, how does the activity (APG05405 (Bacillus sp.); non-matching guide) read?
**A.** Its activity is 78 AU/min.

**Q.** With “GGGAAACAGCUAGAAUGUAACUUAAAGUAGGUCAAUGUUUAAAUUCGAUGUUGCAAUUUGUUUGGACAAGUGGAUUAAAACGUUCCUUGAAAAUCAUAUAAAGCAGCCAGUUUACGGGCUUGGGCGAAUUUGCGUCCAAAGGGUGAGGCCAGGUGUAAGUAAGAACCUACAAAAGCACUCACCAAAGGGUCAAAAAGAUCCUACAUGGAUGUGAGGAUUGAAAUUGGAAUGGGAACUAAAGU / TCGTCGGCAGCGTCAGATGTGTATAAGAGACAGAACGACGGCCAGTGAATTNNNNNTGGAATGGGAACTAAAGTAATGGCAAACGAATTCGTAGGATCCTCTAGAGTCGACCTGCTGTCTCTTATACACATCTCCGAGCCCACGAGAC / GTCTCGTGGGCTCGGAGATGTGTATAAGAGACAGCAGGTCGACTCTAGAGGATCCTACGAATTCGTTTGCCATTACTTTAGTTCCCATTCCANNNNNAATTCACTGGCCGTCGTTCTGTCTCTTATACACATCTGACGCTGCCGACGA [sgRNA Gsg.3 ; dsPCR3]” as the molecule, how does the activity (APG05405 (Bacillus sp.); NEBuffer 2, 37 C, degenerate 5 bp 5' of target, PAM not determined) read?
**A.** Its activity is 780 AU/min.

B1: crRNA 143 + tracrRNA 145 (ssRNA)
RNA 1: GUCACAUCCUACAUGGAUGUGAGGAUUGAAAUUGGAAUGGGAACUAAAGUAAUGG
RNA 2: AAACAGCUAGAAUGUAACUUAAAGUAGGUCAAUGUUUAAAUUCGAUGUUGCAAUUUGUUUGGACAAGUGGAUUAAAACGUUCCUUGAAAAUCAUAUAAAGCAGCCAGUUUACGGGCUUGGGCGAAUUUGCGUCCAAAGGGUGAGGCCAGGUGUAAGUAAGAACCUACAAAAGCACUCACCAAAGGGUCAACUCGAUACAUU
**Q.** Does B1 bind (APG09624)?
**A.** Result: binds

**Q.** Does B1 bind (APG05405)?
**A.** Result: binds
